Consider one molecule from patent US6545128 (BURNHAM INSTITUTE, dated 2003).

For this assay, the target named is T1, 35S-labeled in vitro translated HA-tagged BI-2 (human, UniProt Q9NZS9 1-450, 35S-labeled methionine (in vitro translation)).
T1 construct: Made by TNT rabbit reticulocyte in vitro transcription/translation; also called HA-BI-2; not shown: three copies of the HA tag at the N-terminus (vector pSN503)
T1 sequence: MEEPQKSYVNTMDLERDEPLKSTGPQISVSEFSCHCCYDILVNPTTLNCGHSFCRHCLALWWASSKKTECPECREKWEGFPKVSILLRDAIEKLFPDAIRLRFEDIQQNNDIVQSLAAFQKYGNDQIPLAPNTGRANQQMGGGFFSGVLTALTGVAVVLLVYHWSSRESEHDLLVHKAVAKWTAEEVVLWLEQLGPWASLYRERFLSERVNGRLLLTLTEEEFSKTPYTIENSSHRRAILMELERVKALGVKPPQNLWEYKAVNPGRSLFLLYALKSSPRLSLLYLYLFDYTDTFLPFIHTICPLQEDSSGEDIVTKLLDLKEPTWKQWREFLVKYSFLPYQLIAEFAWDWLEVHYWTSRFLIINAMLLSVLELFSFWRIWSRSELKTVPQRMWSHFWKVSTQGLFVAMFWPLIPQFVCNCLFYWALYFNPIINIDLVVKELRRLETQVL
As to the kind of experiment: GST pull-down: about 5 ug GST fusion protein on glutathione SEPHAROSE, 35S-labeled in vitro translated HA-BI-2, SDS-PAGE and autoradiography. As to the method:
Approximately 5 µg of the following fusion proteins, including GST control, GST-CD40 cytosolic domain, GST-Bcl-2, GST-Bax or GST-BI-2, were immobilized on glutathione SEPHAROSE, then 8 µl of ^35S-labeled in vitro translated HA-tagged BI-2 in binding buffer was added. After incubation at 4° C. for 2 hr, the beads were washed 5× with binding buffer and the associated proteins were eluted in Laemli sample buffer and analyzed by SDS-PAGE (10% gel). As a control, ^35S-labeled BI-2 was loaded directly into the gel, using one-quarter the amount employed for the binding experiments. Following electrophoresis, the gels were dried and exposed to X-ray film.

B1: GST-CD40 cytosolic domain (other, UniProt P25942 216-277, looked up)
chain: KKVAKKPTNKAPHPKQEPQEINFPDDLPGSNTAAPVQETLHGCQPVTQEDGKESRISVQERQ
notes: domain: cytosolic domain; Unrelated control protein; not shown: glutathione S-transferase (GST) fusion partner
Turning to B1, the binding result is reported as “no binding”.
